Experiment [1] deals with LgBiT-p62 (p62 fused at its N-terminus to the Large BiT luciferase fragment; expressed from pLgBiT-p62) (not stated (cDNA from total RNA of HeLa cells)) (UniProt Q13501). As to the kind of experiment: NanoBiT split-luciferase complementation in HeLa cells co-transfected with pLgBiT-p62 and pSmBiT-DDX5; told of each of AUTAC2-2G, AUTAC4-2G, 8-nitro-cGMP and FBnG at 10 uM.
Experiment [2] has the same target. As to the kind of experiment: NanoBiT split-luciferase complementation in HeLa cells co-transfected with pLgBiT-p62 and pSmBiT-DDX5; told of each of compounds 5 to 33 at 10 uM, 24 h.
Experiment [3] shares this target. As to the kind of experiment: NanoBiT split-luciferase complementation in HeLa cells co-transfected with pLgBiT-p62 and pSmBiT-DDX5, treated with 10 uM of compounds 5 to 33 or AUTAC2-2G; read 10 min after start of measurement (FIG. 2).
Experiment [4] shares this target. Briefly: NanoBiT split-luciferase complementation in HeLa cells co-transfected with pLgBiT-p62 and pSmBiT-DDX5, treated with 10 uM AUTAC2-2G, AUTAC4-2G, 8-nitro-cGMP or FBnG; read 10 min after start of measurement (FIG. 1).

With “SmBiT-DDX5 (DDX5, DEAD box protein 5, fused at its N-terminus to the Small BiT luciferase fragment; expressed from pSmBiT-DDX5) (from UniProt P17844 1-614)”, the emission intensity, fold over cells treated with DMSO (times (vs DMSO-treated cells)) in experiment [1] and in experiment [2] was more than 1000 in each case. The emission intensity (NanoBiT luminescence) in experiment [3] was more than 1e+07; in experiment [4], 1e+07.

For the origin of these results see US20260276625A1, “SCREENING METHOD FOR COMPOUND INDUCING AUTOPHAGY” (TOHOKU UNIVERSITY, priority 2023, published 2026).
